Measured values reported in patent US20220411483A1 (Chugai, published 2022).
Residue numbers refer to the chain shown, from its start.

B1: IL6R-P591/IL6R-L (antibody, human IgG1, kappa)
heavy: QVQLQESGPGLVKPSETLSLTCAVSGHSISHDHAWSWVRQPPGEGLEWIGFISYSGITNYNPSLQGRVTISRDNSKNTLYLQMNSLRAEDTAVYYCARSLARTTAMDYWGEGTLVTVSSASTKGPSVFPLAPSSKSTSGGTAALGCLVKDYFPEPVTVSWNSGALTSGVHTFPAVLQSSGLYSLSSVVTVPSSSLGTQTYICNVNHKPSNTKVDKKVEPKSCDKTHTCPPCPAPELLGGDSVMLFPPKPKDTLMISRTPEVTCVVVDVSHEDPEVKFNWYVDGVEVHNAKTKPREEQENSTYRVVSVLTVLHQDWLNGKEYKCKVSNKALPAPIEKTISKAKGQPREPQVYTLPPSRDELTKNQVSLTCLVKGFYPSDIAVEWESNGQPENNYKTTPPVLDSDGSFFLYSKLTVDKSRWQQGNVFSCSVMHEALHNHYTQKSLSLSP
light: not shown
B2: IL6R-P603/IL6R-L (antibody, human IgG1, kappa)
heavy: B1 heavy with V325I
light: not shown
B3: IL6R-P602/IL6R-L (antibody, human IgG1, kappa)
heavy: B1 heavy with Q297V
light: not shown
B4: IL6R-BP559/IL6R-L (antibody, human IgG1, kappa, name in EU numbering)
heavy: B1 heavy with M243F, V266I, S269A, H270E, P273G, E274D, E298D, K441E
light: not shown
notes: human IgG1
B5: IL6R-BP562/IL6R-L (antibody, human IgG1, kappa, name in EU numbering)
heavy: B1 heavy with G239D, M243F, H270D, P273G, E274D, E298D, A332R, K441E
light: not shown
notes: human IgG1
B6: IL6R-BP500/IL6R-L (antibody, human IgG1, kappa, name in EU numbering)
heavy: B1 heavy with G239D, M243F, V266I, S269A, H270E, P273G, E298D, K441E
light: not shown
notes: human IgG1
B7: IL6R-BP504/IL6R-L (antibody, human IgG1, kappa, name in EU numbering)
heavy: B1 heavy with E235D, G239D, M243F, V266I, S269A, H270E, P273G, E274P, E298Y, K441E
light: not shown
notes: human IgG1
B8: IL6R-BP509/IL6R-L (antibody, human IgG1, kappa, name in EU numbering)
heavy: B1 heavy with E235D, G239D, M243F, V266I, S269A, H270E, P273G, E274D, E298D, K441E
light: not shown
notes: human IgG1
B9: IL6R-BP494/IL6R-L (antibody, human IgG1, kappa, name in EU numbering)
heavy: B1 heavy with G239D, M243F, S269A, H270E, P273G, E298D, A332R, K441E
light: not shown
notes: human IgG1
B10: IL6R-BP492/IL6R-L (antibody, human IgG1, kappa, name in EU numbering)
heavy: B1 heavy with M243F, V266I, S269A, H270E, P273G, E298Y, K441E
light: not shown
notes: human IgG1
B11: IL6R-BP564/IL6R-L (antibody, human IgG1, kappa, name in EU numbering)
heavy: B1 heavy with G239D, M243F, H270E, P273G, E274D, E298D, A332R, K441E
light: not shown
notes: human IgG1

Molecular target: T1, FcγRIa extracellular domain, His tag (human, UniProt P12314 16-292)
T1 construct: whole entry named; also called FcgRIa
Assay: SPR, KD ratio

T1 sequence (P12314 16-292): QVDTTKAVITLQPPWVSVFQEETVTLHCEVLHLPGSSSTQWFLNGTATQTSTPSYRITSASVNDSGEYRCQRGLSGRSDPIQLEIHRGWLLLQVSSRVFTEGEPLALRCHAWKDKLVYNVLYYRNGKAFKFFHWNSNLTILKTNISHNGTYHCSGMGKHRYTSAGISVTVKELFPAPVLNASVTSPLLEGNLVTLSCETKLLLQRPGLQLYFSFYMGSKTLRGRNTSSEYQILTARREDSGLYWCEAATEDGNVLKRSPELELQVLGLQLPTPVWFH

| Binder | Relative FcgRIa-binding Activity |
| --- | --- |
| B1 | 0.0138 fold of IL6R-G1d/IL6R-L |
| B2 | 0.015 fold of IL6R-G1d/IL6R-L |
| B3 | 0.0174 fold of IL6R-G1d/IL6R-L |

Molecular target: T2, FcγRIIa R type extracellular domain, His tag (human, UniProt P12318 34-217)
T2 construct: extracellular domain; also called FcgRIIaR
T2 sequence (looked up): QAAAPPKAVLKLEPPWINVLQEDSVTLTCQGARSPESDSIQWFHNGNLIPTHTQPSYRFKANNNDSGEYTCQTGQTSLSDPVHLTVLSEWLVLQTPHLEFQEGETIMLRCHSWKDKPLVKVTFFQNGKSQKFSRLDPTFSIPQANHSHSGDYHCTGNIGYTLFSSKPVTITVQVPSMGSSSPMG
Assay: SPR, KD ratio

| Binder | Relative FcgRIIaR-binding Activity |
| --- | --- |
| B1 | 0.034 fold of IL6R-G1d/IL6R-L |
| B2 | 0.026 fold of IL6R-G1d/IL6R-L |
| B3 | 0.028 fold of IL6R-G1d/IL6R-L |

Molecular target: T3, FcγRIIa H type extracellular domain, His tag (human, UniProt P12318 34-217)
T3 construct: extracellular domain; also called FcgRIIaH
T3 sequence (looked up): T2 sequence (looked up) with R134H
Assay: SPR, KD ratio

| Binder | Relative FcgRIIaH-binding Activity |
| --- | --- |
| B1 | 0.011 fold of IL6R-G1d/IL6R-L |
| B2 | 0.009 fold of IL6R-G1d/IL6R-L |
| B3 | 0.01 fold of IL6R-G1d/IL6R-L |

Molecular target: T4, FcγRIIb extracellular domain, His tag (human, UniProt P31994 43-217)
T4 construct: extracellular domain; also called FcgRIIb
T4 sequence (looked up): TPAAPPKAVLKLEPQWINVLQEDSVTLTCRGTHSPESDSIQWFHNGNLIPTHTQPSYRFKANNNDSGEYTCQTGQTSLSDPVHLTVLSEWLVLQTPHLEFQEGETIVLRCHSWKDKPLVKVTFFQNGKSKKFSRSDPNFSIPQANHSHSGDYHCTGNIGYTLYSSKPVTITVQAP
Assay: SPR, KD ratio

| Binder | Relative FcgRIIb-binding Activity |
| --- | --- |
| B1 | 1.65 fold of IL6R-G1d/IL6R-L |
| B2 | 1.9 fold of IL6R-G1d/IL6R-L |
| B3 | 2.13 fold of IL6R-G1d/IL6R-L |

Molecular target: T5, FcγRIIIa V type extracellular domain, His tag (human, UniProt P08637 17-208)
T5 construct: extracellular domain; also called FcgRIIIaV
Assay: SPR, KD ratio

T5 sequence (P08637 17-208 F176V): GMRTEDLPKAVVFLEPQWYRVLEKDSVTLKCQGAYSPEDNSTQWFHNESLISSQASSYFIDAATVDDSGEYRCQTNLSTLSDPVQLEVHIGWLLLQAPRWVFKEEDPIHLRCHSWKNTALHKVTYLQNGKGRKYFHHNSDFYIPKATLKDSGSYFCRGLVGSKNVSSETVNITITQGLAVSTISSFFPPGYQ

| Binder | Relative FcgRIIIaV-binding Activity |
| --- | --- |
| B1 | 0.008 fold of IL6R-G1d/IL6R-L |
| B2 | 0.004 fold of IL6R-G1d/IL6R-L |
| B3 | 0.006 fold of IL6R-G1d/IL6R-L |

Molecular target: T6, FcγRIa extracellular domain with C-terminal His tag (human, UniProt P12314 16-292)
T6 construct: also called FcgRIa; CD64; not shown: His tag at the C terminus
Assay: SPR, antibody captured, FcgR analyte

T6 sequence (P12314 16-292): as the sequence (P12314 16-292) above

| Binder | Kd [µM] |
| --- | --- |
| B4 | 0.0011 |
| B5 | 0.025 |
| B6 | 0.0023 |
| B7 | 0.0014 |
| B8 | 0.0011 |
| B9 | 0.0039 |
| B10 | 0.00079 |
| B11 | 0.031 |

Molecular target: T7, FcγRIIa R type extracellular domain with C-terminal His tag (human, UniProt P12318 34-217)
T7 construct: extracellular domain; also called FcgRIIaR; not shown: His tag at the C terminus
T7 sequence (looked up): T2 sequence (looked up)
Assay: SPR, antibody captured, FcgR analyte

| Binder | Kd [µM] |
| --- | --- |
| B4 | 1.6 |
| B5 | 0.68 |
| B6 | 0.72 |
| B7 | 0.45 |
| B8 | 0.52 |
| B9 | 0.25 |
| B10 | 0.92 |
| B11 | 0.58 |

Molecular target: T8, FcγRIIb extracellular domain with C-terminal His tag (human, UniProt P31994 43-217)
T8 construct: extracellular domain; also called FcgRIIb; not shown: His tag at the C terminus
T8 sequence (looked up): T4 sequence (looked up)
Assay: SPR, antibody captured, FcgR analyte

| Binder | Kd [µM] |
| --- | --- |
| B4 | 0.028 |
| B5 | 0.024 |
| B6 | 0.024 |
| B7 | 0.024 |
| B8 | 0.018 |
| B9 | 0.0066 |
| B10 | 0.024 |
| B11 | 0.022 |

Molecular target: T2, FcγRIIa R type extracellular domain, …
Assay: SPR, bound amount per captured antibody

| Binder | Relative FcgRIIaR-binding Activity |
| --- | --- |
| B1 | 20 % of IL6R-G1d/IL6R-L |
| B2 | 16.9 % of IL6R-G1d/IL6R-L |
| B3 | 18.1 % of IL6R-G1d/IL6R-L |

Molecular target: T4, FcγRIIb extracellular domain, His tag
Assay: SPR, bound amount per captured antibody

| Binder | Relative FcgRIIb-binding Activity |
| --- | --- |
| B1 | 131 % of IL6R-G1d/IL6R-L |
| B2 | 130 % of IL6R-G1d/IL6R-L |
| B3 | 112 % of IL6R-G1d/IL6R-L |

Molecular target: T7, FcγRIIa R type extracellular domain …
Assay: SPR; KD of IL6R-B3/IL6R-L divided by KD of variant

| Binder | Relative FcgRIIaR-binding Activity |
| --- | --- |
| B4 | 0.7 |
| B5 | 1.6 |
| B6 | 1.5 |
| B7 | 2.4 |
| B8 | 2.1 |
| B9 | 4.3 |
| B10 | 1.2 |
| B11 | 1.9 |

Molecular target: T8, FcγRIIb extracellular domain with …
Assay: SPR; KD of IL6R-B3/IL6R-L divided by KD of variant

| Binder | Relative FcgRIIb-binding Activity |
| --- | --- |
| B4 | 110 |
| B5 | 131 |
| B6 | 128 |
| B7 | 127 |
| B8 | 174 |
| B9 | 470 |
| B10 | 131 |
| B11 | 140 |
